# Data from US20220119534A1 (DRAGONFLY THERAPEUTICS, published 2022).
# T1: mFc-hNKG2D (human, UniProt P26718 73-216)
# T1 construct: extracellular domain; Made in house (Dragonfly Tx); the order of tag and ECD follows the name mFc-hNKG2D; also called mFc-tagged human NKG2D; not shown: mouse Fc tag
# T1 sequence (looked up): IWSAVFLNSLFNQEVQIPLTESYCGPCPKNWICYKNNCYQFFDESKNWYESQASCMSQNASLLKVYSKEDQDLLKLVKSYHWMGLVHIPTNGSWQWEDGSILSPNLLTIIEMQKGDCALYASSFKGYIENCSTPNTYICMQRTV
# Assays:
# [1] = molecular target: T2, Human CD16a V158 (FcγRIIIa V158) (human, UniProt P08637 17-208, biotinylated (site not stated)); test: SPR; biotinylated CD16a V158 captured on SA chip, TriNKET as analyte; 1:1 kinetic fit; control sample, n=3
# T2 construct: V158 is the allele name in mature numbering; also called hCD16aV; hCD16a V158
# mFc-hNKG2D [2] = molecular target: T1, mFc-hNKG2D; test: SPR Biacore 8K 37 C; mFc-hNKG2D captured on anti-mFc chip, TriNKET as analyte; steady state fit; pH 8.0 control
# Description: (§1) Association was monitored for 60 seconds and dissociation was monitored for 60 seconds. Surfaces were regenerated between cycles with three pulses of 10 mM glycine-HCl, pH 1.7 injected for 20 seconds at 100 μL/min. HBS-EP+ (1×) buffer was used throughout the experiment. Data were analyzed using Biacore 8K Insight evaluation software (GE Healthcare).
# mFc-hNKG2D [3] = molecular target: T1, mFc-hNKG2D; test: SPR Biacore 8K 37 C; mFc-hNKG2D captured on anti-mFc chip, TriNKET as analyte; steady state affinity fit; average of 4
# Description: Association was monitored for 60 seconds, and dissociation was monitored for 60 seconds. Surfaces were regenerated between cycles with three pulses of 10 mM glycine-HCl (pH 1.7) injected for 20 seconds at 100 μL/min.
# Two different fits were utilized to obtain the equilibrium affinity data: steady state affinity fit and kinetic fit.
# mFc-hNKG2D [4] = molecular target: T1, mFc-hNKG2D; test: SPR Biacore 8K 37 C; mFc-hNKG2D captured on anti-mFc chip, TriNKET as analyte; steady state fit; after low pH hold, n=3
# mFc-hNKG2D [5] = molecular target: T1, mFc-hNKG2D; test: SPR Biacore 8K 37 C; mFc-hNKG2D captured on anti-mFc chip, TriNKET as analyte; steady state fit; after 4 wks 40 C in CST pH 7.0, n=3
# Description: as §1
# [6] = molecular target: T2, Human CD16a V158 (FcγRIIIa V158); test: SPR; biotinylated CD16a V158 captured on SA chip, TriNKET as analyte; 1:1 kinetic fit; after 4 wks 40 C in phosphate/citrate/NaCl pH 7.8
# Description: Each injection cycle consisted of association, dissociation and regeneration steps. Association consisted of 150 seconds of ligand injection, dissociation was monitored for 300 seconds and then the surface was regenerated between cycles with 2 mM sodium hydroxide injected for 5 seconds. All steps were executed at a flow rate of 30 μL/min. 1× HBS-EP+ buffer solution was used as a running/sample dilution buffer. Data were analyzed using Biacore 8K Insight evaluation software (GE Healthcare).
# T2 sequence (P08637 17-208 F176V limits assumed): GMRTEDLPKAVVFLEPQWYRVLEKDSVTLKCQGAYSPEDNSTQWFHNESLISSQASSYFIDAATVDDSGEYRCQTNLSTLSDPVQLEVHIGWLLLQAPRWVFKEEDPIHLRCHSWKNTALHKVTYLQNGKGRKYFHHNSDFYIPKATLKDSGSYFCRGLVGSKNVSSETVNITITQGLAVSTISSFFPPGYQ
binder,measurement,setting,value
"F3'-1602 TriNKET (bispecific antibody, human IgG1, kappa, Trispecific F3' format: CLEC12A scFv-Fc paired with NKG2D Fab-Fc; Stressed and control samples of the stability studies are the same molecule; also called AB0237) QLQLQESGPGLVKPSETLSLTCTVSGFSLTNYGLHWIRQPPGKCLEWIGVIWSGGKTDYNPSLKSRVTISKDTSKNQFSLKLSSVQAADTAVYYCAKYDYDDSLDYWGQGTLVTVSSGGGGSGGGGSGGGGSGGGGSDIQMTQSPSSLSASVGDRVTITCHASQNINFWLSWYQQKPGKAPKLLIYEASNLHTGVPSRFSGSGSGTRFTLTISSLQPEDIATYYCQQSHSYPLTFGCGTKLEIKGSDKTHTCPPCPAPELLGGPSVFLFPPKPKDTLMISRTPEVTCVVVDVSHEDPEVKFNWYVDGVEVHNAKTKPREEQYNSTYRVVSVLTVLHQDWLNGKEYKCKVSNKALPAPIEKTISKAKGQPREPRVYTLPPCRDELTKNQVSLTCLVKGFYPSDIAVEWESNGQPENNYKTTPPVLVSDGSFTLYSKLTVDKSRWQQGNVFSCSVMHEALHNHYTQKSLSLSPG heavy: EVQLVESGGGLVKPGGSLRLSCAASGFTFSSYSMNWVRQAPGKGLEWVSSISSSSSYIYYADSVKGRFTISRDNAKNSLYLQMNSLRAEDTAVYYCARGAPIGAAAGWFDPWGQGTLVTVSSASTKGPSVFPLAPSSKSTSGGTAALGCLVKDYFPEPVTVSWNSGALTSGVHTFPAVLQSSGLYSLSSVVTVPSSSLGTQTYICNVNHKPSNTKVDKKVEPKSCDKTHTCPPCPAPELLGGPSVFLFPPKPKDTLMISRTPEVTCVVVDVSHEDPEVKFNWYVDGVEVHNAKTKPREEQYNSTYRVVSVLTVLHQDWLNGKEYKCKVSNKALPAPIEKTISKAKGQPREPQVCTLPPSRDELTENQVSLTCLVKGFYPSDIAVEWESNGQPENNYKTTPPVLDSDGSFFLYSWLTVDKSRWQQGNVFSCSVMHEALHNHYTQKSLSLSPG light: DIQMTQSPSSVSASVGDRVTITCRASQGISSWLAWYQQKPGKAPKLLIYAASSLQSGVPSRFSGSGSGTDFTLTISSLQPEDFATYYCQQGVSFPRTFGGGTKVEIKRTVAAPSVFIFPPSDEQLKSGTASVVCLLNNFYPREAKVQWKVDNALQSGNSQESVTEQDSKDSTYSLSSTLTLSKADYEKHKVYACEVTHQGLSSPVTKSFNRGEC",Kd,[1],0.212 µM
same,koff,[1],0.024 s⁻¹
same,kon,[1],113000 M⁻¹ s⁻¹
same,Kd,mFc-hNKG2D [2],0.695 µM
same,Kd,mFc-hNKG2D [3],0.727 µM
same,Kd,mFc-hNKG2D [4],0.672 µM
same,Kd,mFc-hNKG2D [5],0.711 µM
same,Kd,[6],0.216 µM
same,koff,[6],0.0209 s⁻¹
same,kon,[6],96700 M⁻¹ s⁻¹
